In patent publication US20260055186A1 (REPERTOIRE IMMUNE MEDICINES, published 2026):
Values belong to the binder of their own block, whether it stands above or below them.

What was measured:
[1] = target: T1, human CD8 on human T cells (human, UniProt P01732 22-235); assay: cell-based or functional assay
[2] = target: T2, cynomolgus monkey CD8 on cynomolgus cells (cynomolgus monkey); assay: flow cytometry, CD8+ T cells in cynomolgus PBMCs, 30 min 37 °C, anti-IL-12p40
T2 construct: whole, on cells; also called cynomolgus CD8
Procedure: (§1) Fusion proteins H6K3-IgG-IL12 (LC) and H6K3-IgG-IL12 (1×HC) were also evaluated for their ability to bind CD8-expressing cells in human and cynomolgus monkey PBMCs. Briefly, 5×10⁴ human PBMCs (StemCell Technologies) or cynomolgus monkey PBMCs (iQ Biosciences) were incubated with 7 serial 5-fold dilutions of one of the two aforementioned H6K3-IgG-IL12 constructs for 30 minutes at 37° C. Cells were washed twice with MACS buffer and stained with viability dye and fluorophore-conjugated antibodies against IL-12 and cell-surface markers for 20 minutes at 4° C. Cells were analyzed on a FACSCelesta using Diva software (BD Biosciences). Binding activity for all treatments was quantified and represented as the mean fluorescence intensity values of IL-12 on human CD8+ T cells and NK cells (FIGS. 17A-17B) and on cynomolgus monkey CD8+ T cells and NK cells (FIGS. 17C-17D). For the H6K3-IgG-IL12 (LC) treatments, results are also reported as the frequency of IL-12+CD8+ T cells and NK cells (FIG. 17E). As shown in FIGS. 17A-17D, both H6K3-IgG-IL12 (LC) and H6K3-IgG-IL12 (1×HC) were able to selectively bind human CD8+ T cells over NK cells at a range of concentrations. […] Where the cells were incubated with 0.128 nM of the IL-12 fusion constructs, the number of live CD45+ cells staining as CD8+ and IL-12 were assessed by flow cytometry. […]

[3] = target: T1, human CD8 on human T cells; assay: flow cytometry, CD8+ T cells in human PBMCs, 30 min 37 °C, anti-IL-12p40
Procedure: as §1

[4] = target: T2, cynomolgus monkey CD8 on cynomolgus …; assay: flow cytometry, NK cells in cynomolgus PBMCs (CD8-expressing by paragraph 442), 30 min 37 °C, anti-IL-12p40
Procedure: as §1

[5] = target: T2, cynomolgus monkey CD8 on cynomolgus …; assay: cell-based or functional assay
[6] = target: T1, human CD8 on human T cells; assay: flow cytometry, CD8+ T cells in human PBMCs, 30 min 37 °C, anti-human IL-12 AF647
Procedure: Fusion proteins H6K3-IgG-IL12 (LC) and H6K3-IgG-IL12 (1×HC) were evaluated for their ability to selectively bind human CD8+ T cells in PBMCs. Briefly, 5×10⁴ human PBMCs (StemCell Technologies) were incubated with 7 serial 5-fold dilutions of one of the two aforementioned H6K3-IgG-IL12 constructs for 30 minutes at 37° C. Cells were washed twice with MACS buffer and stained for 20 minutes at 4° C. with fluorophore-conjugated anti-CD3, anti-CD4, anti-CD8, anti-CD56, and anti-IL12 antibodies, and viability dye. Cells were analyzed on a FACSCelesta using Diva software (BD Biosciences). Binding activity was quantified and represented as the mean fluorescent intensity values of IL-12 on either CD8+ T cells or NK Cells. As shown in FIGS. 16A-16B, both H6K3-IgG-IL12 (LC) and H6K3-IgG-IL12 (1×HC) were able to selectively bind human CD8+ T cells over NK cells at a range of concentrations.

mouse CD8 on mouse cells = target: T3, mouse CD8 on mouse cells (mouse, UniProt P01731 28-247); assay: flow cytometry of peripheral blood, B16-F10-bearing mice, 4 days after the first dose (in vivo)
T3 construct: whole, on cells; also called mCD8
Procedure: Mice were injected weekly for a total of 4 doses, at a dose equivalent to 10 μg of recombinant IL12. Tumor volume was measured twice per week, and mice were euthanized if tumor volume exceeded 2000 mm³. […] Specifically, in the MC38 model, treatment with the CD8IgG-IL12 (LC) Clone 2 construct controlled tumor growth up to day 21 and yielded 3/8 complete responders, whereas treatment with the CD8IgG-IL12 (1× HC) construct controlled tumor growth for the entire duration of the study and yielded 7/8 complete responders (FIGS. 6A-6C). In the B16-F10 model, which is typically less responsive to immunotherapy, both constructs limited tumor growth for up to 14 days after the initial dose (FIGS. 7A-7C).
In the same study, the two anti-CD8:IL-12 fusion constructs were also evaluated for their ability to be retained in tissues. Peripheral blood cells were collected from MC38 and B16-F10 tumor-bearing mice 4 days after administration of the first dose of the IL-12 construct. Samples were analyzed by flow cytometry. In the case of the MC38 tumor-bearing mice, IL-12 was detected on the surface of CD8+ T cells 4 days post-treatment with either of the two anti-CD8:IL-12 fusion protein constructs, but not on the surface of CD4+ T cells or NK cells (FIG. 8A). […]

T1 sequence (P01732 22-235): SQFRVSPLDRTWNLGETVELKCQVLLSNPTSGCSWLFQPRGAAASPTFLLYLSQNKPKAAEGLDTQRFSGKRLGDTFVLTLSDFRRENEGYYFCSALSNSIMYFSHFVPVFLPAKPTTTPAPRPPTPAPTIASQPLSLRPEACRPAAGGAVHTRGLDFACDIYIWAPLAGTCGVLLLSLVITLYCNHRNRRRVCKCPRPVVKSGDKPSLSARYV
T3 sequence (P01731 28-247): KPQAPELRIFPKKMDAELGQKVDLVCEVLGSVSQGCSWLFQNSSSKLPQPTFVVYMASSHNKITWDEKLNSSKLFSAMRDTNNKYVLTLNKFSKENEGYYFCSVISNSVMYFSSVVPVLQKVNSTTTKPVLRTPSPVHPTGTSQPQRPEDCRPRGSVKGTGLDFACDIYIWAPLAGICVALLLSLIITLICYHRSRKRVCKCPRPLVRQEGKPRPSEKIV

EC50 of pSTAT4 signaling in human CD8+ T cells [1]: 2.3 pM
EC50 (read off the curve) [2]: ~0.05 nM
EC50 (read off the curve) [3]: ~0.05 nM
EC50 (read off the curve) [4]: ~0.1 nM
EC50 of pSTAT4 signaling in cynomolgus CD8+ T cells [5]: 2.3 pM
EC50 of pSTAT4 signaling in cynomolgus NK cells [5]: 2 pM
EC50 (read off the curve) [6]: ~0.06 nM
B1: H6K3-IgG-IL12 (1×HC) (other)
VH: EVQLVQSGAEVKKPGATVKISCKASGYTFTDFTMHWVQQAPGKGLEWIGLVNPNNGGNIYAEKFQGRVTLTVDTSTSTAYMELSSLRSEDTAVYYCGRVPLYTSHGMDYWGQGTLVTVSS
VL: EIVLTQSPATLSLSPGERATISCRASESVDSYDINSMHWYQQKPGQAPRLLIYRASHLQSGIPARFSGSGSRTDFTLTISSLEPEDFATYYCQQSNEDPLTFGQGTKLEIK
notes: Humanized 02A01 VH6/VK3 IgG1 with one human IL-12p70 on the C-terminus of the knob heavy chain; Fc with L234A, L235A, P329G, N297A and T366W / T366S, L368A, Y407V; not tied to this name; also called hCD8IgG-1×IL12 (HC); hCD8IgG-IL12 (1 × HC)

B2: rIL-12 (ligand)
alpha: RVIPVSGPARCLSQSRNLLKTTDDMVKTAREKLKHYSCTAEDIDHEDITRDQTSTLKTCLPLELHKNESCLATRETSSTTRGSCLPPQKTSLMMTLCLGSIYEDLKMYQTEFQAINAALQNHNHQQIILDKGMLVAIDELMQSLNHNGETLRQKPPVGEADPYRVKMKLCILLHAFSTRVVTINRVMGYLSSA
beta: MWELEKDVYVVEVDWTPDAPGETVNLTCDTPEEDDITWTSDQRHGVIGSGKTLTITVKEFLDAGQYTCHKGGETLSHSHLLLHKKENGIWSTEILKNFKNKTFLKCEAPNYSGRFTCSWLVQRNMDLKFNIKSSSSSPDSRAVTCGMASLSAEKVTLDQRDYEKYSVSCQEDVTCPTAEETLPIELALEARQQNKYENYSTSFFIRDIIKPDPPKNLQMKPLKNSQVEVSWEYPDSWSTPHSYFSLKFFVRIQRKKEKMKETEEGCNQKGAFLVEKTSTEVQCKGGNVCVQAQDRYYNSSCSKWACVPCRVRS
notes: untargeted control; also called rmIL-12; non-targeted recombinant mouse IL-12; copies: 1 + 1
binding result (mouse CD8 on mouse cells): no binding (tested: dose equivalent to 10 µg IL-12, i.v.)
